Assay results: patent US20130287781A1 (GlaxoSmithKline, published 2013)
Where a chain is given by its changes, count along the chain named. In names and notes the source's numbering stands. Where no end group is shown, it is not given here. The star is where a group is joined. Biotin = O=C1N[C@H]2[C@H](CS[C@H]2CCCCC(=O)*)N1

Key:
[1] = molecular target: T1, H28L16; test: competition ELISA: H28L16 captured on anti-human IgG, peptide pre-mixed with GST-human NOGO-A56 (1 ug/ml), bound NOGO detected with anti-GST-HRP
T1 construct: IgG1 (L235A, G237A) / kappa; CAMPATH-1H signal (1-19) left out; also called H28FL L16FL; NOGO H28L16
Procedure: The plates were rinsed 3 times with TBS containing 0.05% Tween (TBST) then blocked with 1% BSA in TBST at room temperature for 1 hour. […] The plates were washed 3 times with TBST. Peptides (from 0 to 100 g/ml) and GST-human NOGO-A56 at a concentration of 1 ug/ml (diluted in 1% BSA in TBST) were pre-mixed prior to addition into the wells and incubated at room temperature for 1 hour. The plates were washed 3 times with TBST then incubated for 1 hour with rabbit anti-GST peroxidase conjugate (Sigma, #A7340, 1:2000, diluted in 1% BSA in TBST) for 1 hour. The plates were washed 3 times with TBST and then incubated with 50 l OPD peroxidase substrate (Sigma) per well for 10 minutes. The colour reaction was stopped by the addition of 25 l concentrated H₂SO₄. Absorbance at 490 nm was measured using a plate reader.

[2] = molecular target: T2, GST-human NOGO-A56 (human); test: SPR (Biacore) off-rate ranking on GST-human NOGO-A56 chip, one experiment
T2 construct: Expressed in E. coli BL21 from pGEX-6P1 and purified on glutathione-sepharose; the GST tag is part of the protein in the assays; also called GST-Nogo-A 5+6; GST Nogo-A 5 + 6
Procedure: (§1) GST-human NOGO-A56 was immobilised to a CM5 chip by primary amine coupling using the Biacore Wizard program designed for targeted immobilisation levels. The CM5 sensor surface was activated by passing a solution of 50 mM N-hydroxy-succinimide (NHS) and 200 mM N-ethyl-N′-dimethylaminopropyl carbonide (EDC). Then GST-human NOGO-A56 in sodium acetate buffer, pH5.0 or pH 4.5, was passed over the chip and immobilised. After immobilisation was complete any still activated esters were blocked by an injection of 1M ethanolamine hydrochloride, pH8.5.
The GST-human NOGO-A56 chip was prepared as for kinetic analysis. Cell supernatants where taken directly from transient transfections of CHO-K1 cells. These were passed directly over the sensor surface and the interaction measured. A mock transfected cell supernatant was used for double referencing to remove any artefacts due to the tissue culture media. All runs were referenced against a blanked sensor surface (one that had been activated and blocked as described earlier but had no addition of ligand). Analysis of binding was carried out using the BIAevaluation kinetic analysis software version 4.1.

[3] = molecular target: T2, GST-human NOGO-A56; test: SPR (Biacore), NOGO amine-coupled to CM5, antibody flowed over
Procedure: as §1

[4] = molecular target: T2, GST-human NOGO-A56; test: direct ELISA, GST-human NOGO-A56 coated at 1.0 mcg/ml, purified antibody, OD490
Procedure: (§2) Wells were rinsed once with TBS+0.05% Tween (TBST) then incubated with 2% BSA in TBST to block non-specific binding sites at room temperature for 1 hour. Antibodies were diluted in TBST+2% BSA to 10 μg/ml and ½ dilutions made from this. Antibodies were added to wells in duplicate and incubated at room temperature for 1 hour. […] The wells were washed three times with TBST and then incubated with 100 μl OPD peroxidase substrate (Sigma) per well for 10 minutes. The colour reaction was stopped by the addition of 25 μl concentrated H₂SO₄. Optical density at 490 nm was measured using a plate reader. Background values read from wells with no antibody were subtracted.

[5] = molecular target: T2, GST-human NOGO-A56; test: as above; remark: listed apart in the source
Procedure: as §2

[6] = molecular target: T2, GST-human NOGO-A56; test: SPR (Biacore) off-rate on NOGO chip, panel of H6FL CDR H3 variants with L13FL
[7] = molecular target: T2, GST-human NOGO-A56; test: SPR (Biacore), GST-human NOGO-A56 amine-coupled to CM5, antibody flowed over, 37 C
Procedure: as §1
(§3) The anti-NOGO mAbs were diluted down in HBS-EP (10 mM HEPES, pH 7.4, 150 mM NaCl, 3 mM EDTA, and 0.005% P-20 surfactant) for the BIAcore 3000 or HBS-EP+ (10 mM HEPES, pH 7.4, 150 mM NaCl, 3 mM EDTA, and 0.05% P-20 surfactant) in the case of the T100 and binding studies were carried out at range of defined antibody concentrations. All runs were referenced against a blanked sensor surface (one that had been activated and blocked as described earlier but had no addition of ligand). Analysis of binding was carried out using the BIAevaluation kinetic analysis software version 4.1 for the BIAcore 3000 and T100 kinetic analysis software version 1.0. […] Unless otherwise stated, the BIAcore experiments were performed at 25° C.

[8] = molecular target: T2, GST-human NOGO-A56; test: SPR (Biacore), GST-human NOGO-A56 amine-coupled to CM5, antibody flowed over, 25 C
Procedure: as §1, §3

[9] = molecular target: T2, GST-human NOGO-A56; test: as above; remark: listed apart in the source
Procedure: as §1, §3

[10] = molecular target: T2, GST-human NOGO-A56; test: SPR (Biacore T100), reverse format: antibody captured by Protein A, GST Nogo-A 5+6 0.125-8 nM flowed over; mean (SD in brackets)
Source text: Protein A was immobilised to approximately 4000RUs by primary amine and used to capture 200-300RUs of the sample antibodies. […] The values show the mean and standard deviation (in brackets) of three independent runs in duplicate. Each data set was independently analysed prior to the calculation of the mean and standard deviation.

[11] = molecular target: T2, GST-human NOGO-A56; test: direct ELISA, GST-Nogo-A 5+6 coated at 1.0 mcg/ml, anti-human IgG-HRP, Abs490
Procedure: as §2

[12] = molecular target: T2, GST-human NOGO-A56; test: SPR (Biacore), GST-human NOGO-A56 amine-coupled to CM5, antibody flowed over, 25 C; remark: listed apart in the source
Procedure: as §1, §3

[13] = molecular target: T2, GST-human NOGO-A56; test: SPR (Biacore T100), antigen amine-coupled to CM5, antibody 0.125-8 nM; mean of six runs in duplicate (SD in brackets)
Source text: In the first approach, the recombinant Nogo-A was coupled to the surface of the chip and anti-Nogo-A antibodies passed over this surface. In the second approach, Protein A was used to capture the antibody onto the surface of the chip over which the recombinant GST-human Nogo-A56 was passed.
The antigen was bound to the CM5 chip by primary amine coupling. […] The values show the mean and standard deviation (in brackets) of six independent runs carried out in duplicate. Each completed data set was analysed independently prior to the calculation of mean and standard deviation.

[14] = molecular target: T2, GST-human NOGO-A56; test: reverse format ELISA: antibody captured on anti-human IgG, GST-Nogo-A 5+6 detected with anti-GST-HRP; the x axis is the antibody concentration
[15] = molecular target: T2, GST-human NOGO-A56; test: competition ELISA on coated GST-Nogo-A 5+6; competitor 2A10 pre-mixed, bound 2A10 detected with anti-mouse IgG-HRP

T2 sequence (chain, as listed by the source limits assumed): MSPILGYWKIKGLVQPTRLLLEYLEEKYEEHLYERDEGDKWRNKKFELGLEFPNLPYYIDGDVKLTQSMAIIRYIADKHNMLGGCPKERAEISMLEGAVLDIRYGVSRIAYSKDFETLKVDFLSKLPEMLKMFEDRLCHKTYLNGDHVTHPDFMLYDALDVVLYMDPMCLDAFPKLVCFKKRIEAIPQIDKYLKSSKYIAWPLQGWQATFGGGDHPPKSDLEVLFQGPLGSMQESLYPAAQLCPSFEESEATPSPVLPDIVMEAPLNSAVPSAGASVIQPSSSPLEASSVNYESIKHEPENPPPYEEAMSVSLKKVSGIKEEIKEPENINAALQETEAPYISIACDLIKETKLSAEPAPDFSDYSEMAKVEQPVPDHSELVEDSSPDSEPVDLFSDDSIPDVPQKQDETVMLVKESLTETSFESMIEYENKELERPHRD
T1 sequence (light, as listed by the source): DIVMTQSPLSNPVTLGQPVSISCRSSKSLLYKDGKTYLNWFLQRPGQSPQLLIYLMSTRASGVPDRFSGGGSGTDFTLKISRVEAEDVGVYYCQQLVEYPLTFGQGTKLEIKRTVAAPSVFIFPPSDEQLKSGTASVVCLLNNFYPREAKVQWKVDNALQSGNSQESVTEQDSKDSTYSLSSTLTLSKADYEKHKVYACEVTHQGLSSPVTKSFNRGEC

B1: peptide 16 (peptide)
peptide: Biotin-SGSGYESIKHEPENPPPYEE
[1]
  binding result: no binding (tested: about 33 mcg/ml)

B2: peptide 17 (peptide)
peptide: Biotin-SGSGKHEPENPPPYEEAMSV
[1]
  binding result: no binding (tested: about 33 mcg/ml)

B3: peptide 7 (biotin-SGSG-VLPDIVMEAPLNSAVP) (peptide)
peptide: Biotin-SGSGVLPDIVMEAPLNSAVP
[1]
  IC50 (read off the curve): ~0.9 µg/mL

B4: peptide 6 (biotin-SGSG-TPSPVLPDIVMEAPLN) (peptide)
peptide: Biotin-SGSGTPSPVLPDIVMEAPLN
[1]
  binding result: binds

B5: H6L13 (H6FL L13FL) (antibody, human IgG1, kappa, V domains shown)
VH: QVQLVQSGAEVKKPGASVKVSCKASGYTFTSYWMHWVRQAPGQGLEWIGNINPSNGGTNYNEKFKSRATMTRDTSTSTAYMELSSLRSEDTAVYYCELGQGYWGQGTLVTVSS
VL: DIVMTQSPLSLPVTLGQPASISCRSSKSLLYKDGKTYLNWFQQRPGQSPQLLIYLMSTRASGVPDRFSGGGSGTDFTLKISRVEAEDVGVYYCQQLVEYPLTFGQGTKLEIKR
notes: Human IgG1 (L235A, G237A, EU Index) / kappa; also called H6L13 with VH CDR3 GQGY
[2]
  koff: 0.0138 s⁻¹
[3]
  Kd: 6970 pM
  koff: 0.00722 s⁻¹
  kon: 1.04e+06 M⁻¹ s⁻¹
[4]
  EC50 (read off the curve): ~0.1 µg/mL
[5]
  EC50 (read off the curve): ~0.1 µg/mL
[6]
  koff: 0.0198 s⁻¹

B6: H100L100 (antibody, V domains shown)
VH: B5 VH with G101S
VL: DIVMTQSPLSLPVTLGQPASISCRSSKSLLYKDGKTYLNWFRQRPGQSPQLLIYLMSTRASGVPDRFSGGGSGTDFTLKISRVEAEDVGVYYCQQLVEYPLTFGQGTKLEIK
notes: Full length versions of the heavy and light chains were expressed in CHO cells; H100 is H6 VH with G101S (Kabat), L100 is L13 VL with Q37R (Kabat); also called G101S/Q37R variant
[3]
  Kd: 396 pM
  koff: 0.00507 s⁻¹
  kon: 1.28e+07 M⁻¹ s⁻¹

B7: H1L11 (antibody, human IgG1, kappa, V domains shown)
VH: B5 VH with I48M, A68V, A79V
VL: B5 VL with M4I
notes: CDR H3 GQGY; also called humanised 2A10 variant H1L11 of WO05/061544
[4]
  EC50 (read off the curve): ~0.2 µg/mL

B8: H100L101 (antibody, V domains shown)
VH: B5 VH with G101S
VL: B6 VL with R42Q, Q50R
notes: Full length version expressed in CHO cells; L101 is L13 VL with Q45R (Kabat)
[3]
  Kd: 329 pM
  koff: 0.00429 s⁻¹
  kon: 1.3e+07 M⁻¹ s⁻¹

B9: H16L16 (antibody, human IgG1, kappa, V domains shown)
VH: B5 VH with R38K, A40R, R67K, M70L, R72V, T74K
VL: B5 VL with L11N, A19V, Q42L
notes: IgG1 (L235A, G237A) / kappa; CAMPATH-1H signal (1-19) left out
[7]
  Kd: 1160 pM
  koff: 0.00616 s⁻¹
  kon: 5.31e+06 M⁻¹ s⁻¹
[8]
  Kd: 1080 pM
  koff: 0.00372 s⁻¹
  kon: 3.43e+06 M⁻¹ s⁻¹
[4]
  EC50 (read off the curve): ~0.08 µg/mL

B10: H6L13 variant with VH CDR3 RQGY (antibody, human IgG1, kappa, V domains shown)
VH: B5 VH with G99R
VL: B5 VL
notes: Single point variant of H6FL with L13FL
[6]
  koff: 0.0175 s⁻¹

B11: H28L13 (antibody, human IgG1, kappa, V domains shown)
VH: B5 VH with R67K, G99M
VL: B5 VL
notes: IgG1 (L235A, G237A) / kappa; CAMPATH-1H signal (1-19) left out; also called H28FL L13FL
[9]
  Kd: 454 pM
  koff: 0.0033 s⁻¹
  kon: 7.26e+06 M⁻¹ s⁻¹
[10]
  Kd: 340 pM
[11]
  EC50 (read off the curve): ~0.03 µg/mL
[7]
  Kd: 1020 pM
  koff: 0.00759 s⁻¹
  kon: 7.43e+06 M⁻¹ s⁻¹
[8]
  Kd: 936 pM
  koff: 0.00389 s⁻¹
  kon: 4.16e+06 M⁻¹ s⁻¹
[12]
  Kd: 450 pM
  koff: 0.00317 s⁻¹
  kon: 6.97e+06 M⁻¹ s⁻¹
[4]
  EC50 (read off the curve): ~0.07 µg/mL
[13]
  Kd: 1110 pM
[14]
  EC50 (read off the curve): ~0.06 µg/mL
[5]
  EC50 (read off the curve): ~0.08 µg/mL
[15]
  IC50 (read off the curve): ~5 µg/mL

B12: H6L13 variant with VH CDR3 GQLY (antibody, human IgG1, kappa, V domains shown)
VH: B5 VH with G101L
VL: B5 VL
notes: as for B10
[6]
  koff: 0.0132 s⁻¹

B13: H27L13 (antibody, human IgG1, kappa, V domains shown)
VH: B5 VH with R38K, A40R, R67K, M70L, R72V, T74K, G99M
VL: B5 VL
notes: as for B9
[9]
  Kd: 291 pM
  koff: 0.0018 s⁻¹
  kon: 6.2e+06 M⁻¹ s⁻¹
[7]
  Kd: 641 pM
  koff: 0.00422 s⁻¹
  kon: 6.58e+06 M⁻¹ s⁻¹
[8]
  Kd: 606 pM
  koff: 0.00213 s⁻¹
  kon: 3.5e+06 M⁻¹ s⁻¹
[12]
  Kd: 280 pM
  koff: 0.00183 s⁻¹
  kon: 6.58e+06 M⁻¹ s⁻¹
[4]
  EC50 (read off the curve): ~0.08 µg/mL

B14: H6L13 variant with VH CDR3 GQYY (antibody, human IgG1, kappa, V domains shown)
VH: B5 VH with G101Y
VL: B5 VL
notes: as for B10
[6]
  koff: 0.0328 s⁻¹

B15: H6L13 variant with VH CDR3 GQFY (antibody, human IgG1, kappa, V domains shown)
VH: B5 VH with G101F
VL: B5 VL
notes: as for B10
[6]
  koff: 0.0335 s⁻¹

B16: H6L13 variant with VH CDR3 GLGY (antibody, human IgG1, kappa, V domains shown)
VH: B5 VH with Q100L
VL: B5 VL
notes: as for B10
[6]
  koff: 0.019 s⁻¹

B17: H6L13 variant with VH CDR3 GQGW (antibody, human IgG1, kappa, V domains shown)
VH: B5 VH with Y102W
VL: B5 VL
notes: as for B10
[6]
  koff: 0.0216 s⁻¹

B18: H6L13 variant with VH CDR3 GQWY (antibody, human IgG1, kappa, V domains shown)
VH: B5 VH with G101W
VL: B5 VL
notes: as for B10
[6]
  koff: 0.0177 s⁻¹

B19: H6L13 variant with VH CDR3 GQSY (antibody, human IgG1, kappa, V domains shown)
VH: B5 VH with G101S
VL: B5 VL
notes: as for B10
[6]
  koff: 0.0186 s⁻¹

B20: H6L13 variant with VH CDR3 GSGY (antibody, human IgG1, kappa, V domains shown)
VH: B5 VH with Q100S
VL: B5 VL
notes: as for B10
[6]
  koff: 0.0207 s⁻¹

B21: H6L13 variant with VH CDR3 IQGY (antibody, human IgG1, kappa, V domains shown)
VH: B5 VH with G99I
VL: B5 VL
notes: as for B10
[6]
  koff: 0.0172 s⁻¹

B22: H6L13 variant with VH CDR3 GQNY (antibody, human IgG1, kappa, V domains shown)
VH: B5 VH with G101N
VL: B5 VL
notes: as for B10
[6]
  koff: 0.00966 s⁻¹

B23: H6L13 variant with VH CDR3 GAGY (antibody, human IgG1, kappa, V domains shown)
VH: B5 VH with Q100A
VL: B5 VL
notes: as for B10
[6]
  koff: 0.0315 s⁻¹

B24: H6L13 variant with VH CDR3 GDGY (antibody, human IgG1, kappa, V domains shown)
VH: B5 VH with Q100D
VL: B5 VL
notes: as for B10
[6]
  koff: 0.0212 s⁻¹

B25: H6L13 variant with VH CDR3 GIGY (antibody, human IgG1, kappa, V domains shown)
VH: B5 VH with Q100I
VL: B5 VL
notes: as for B10
[6]
  koff: 0.0257 s⁻¹

B26: H6L13 variant with VH CDR3 GVGY (antibody, human IgG1, kappa, V domains shown)
VH: B5 VH with Q100V
VL: B5 VL
notes: as for B10
[6]
  koff: 0.0178 s⁻¹

B27: Hc(G95M)Lc (antibody, human IgG1, kappa, V domains shown)
VH: QVQLQQPGTELVKPGASVKLSCKASGYTFTSYWMHWVKQRPGQGLEWIGNINPSNGGTNYNEKFKSKATLTVDKSSSTAYMQLSSLTSEDSAVYYCELMQGYWGQGTLVTVSS
VL: DIVITQDELSNPVTSGESVSISCRSSKSLLYKDGKTYLNWFLQRPGQSPQLLIYLMSTRASGVSDRFSGSGSGTDFTLEISRVKAEDVGVYYCQQLVEYPLTFGAGTKLELKR
notes: also called HcLc containing the G95M mutation of the CDR H3
[2]
  koff: 0.000614 s⁻¹
